Results as given in article PMC5286426, “The Calcium-Dependent Switch Helix of L-Plastin Regulates Actin Bundling” (Scientific Reports, 2017).

Target: T1, L-plastin EF construct (EF-hand headpiece domain, H5 region omitted) (human)
T1 construct: human L-plastin (LPL), EF construct: the two N-terminal EF-hand motifs (helices 1-4, residues 8-79) with the H5 region omitted; holds Cys42; 15N-labelled in the NMR experiment; immobilised by Cys42 in SPR; also called LPL-EF; EF domain of LPL; source: E. coli BL21 (DE3), purified (IMAC, His-tag cleaved with TEV protease); not shown: His-tag, N-terminal, cleaved
Experiment: SPR; EF construct immobilised by its sole cysteine (Cys42) on a CM5 chip by thiol coupling; peptides injected; BIAcore X100; 10 mM Tris-HCl pH 7.5, 150 mM KCl, 1 mM CaCl2, 0.005% Tween-20; 30 uL/min, contact 1 min, 25 °C
Conditions: both partners purified

B1: CaMKI peptide (CaM-binding peptide) (peptide)
chain: AKSKWKQAFNATAVVRHMRKLQ
modifications: Limits are not given; 299-320 is the conventional 22-residue CaMKI calmodulin-binding peptide. Terminal modifications are not stated.
B1 showed a Kd of 3.27 µM.
